Laboratory results taken from paper PMC6307784.

Biological target: T1, NhaR-His6 (Escherichia coli) (UniProt P0A9G2)
T1 sequence: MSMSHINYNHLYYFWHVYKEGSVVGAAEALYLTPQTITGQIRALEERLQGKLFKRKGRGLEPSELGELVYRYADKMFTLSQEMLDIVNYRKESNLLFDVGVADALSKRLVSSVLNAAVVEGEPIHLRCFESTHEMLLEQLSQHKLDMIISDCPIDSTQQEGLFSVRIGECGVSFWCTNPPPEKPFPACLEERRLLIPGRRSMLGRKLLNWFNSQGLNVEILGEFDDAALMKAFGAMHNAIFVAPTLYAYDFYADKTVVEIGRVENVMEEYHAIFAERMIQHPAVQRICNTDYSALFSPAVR
Assay: EMSA
Settings: LightShift Chemiluminescent EMSA Kit (Pierce) as per manufacturer, DNA 1 fM as printed, 5% PAGE; buffer, salt, pH and temperature not stated

Q: For “TCGACGAAGATAGAATCGTCTTTTTCGCGAAGTCTTACAAGGCGCTTACAGACAATGCCTTAAGGAAAATTTCATATGAAAGTTAAGAATTAACAATCAACATTTTGATTTTAAATGAAAATAACGATTCTTATCTTTTTAAGTATTCGCTTATTTCCTGGCGATCTCCTACAGAGTCTGTAAGAGATCTCTCACAACCAGATGGGGTATTTGGATTA (double strand) [csrB promoter 220 bp]”, which binding is on record?
A: no binding
